Molecular target: T1, binary FGFR1c-Klotho complex (UniProt O35082+P11362)
T1 construct: The ectodomain of murine Klotho (A35 to K982) was purified from culture media; FLAG (C); made in house; host or cells: E. coli (FGFR1c, FGF23); HEK293 (Klotho ectodomain)
T1 sequence (P11362 142-365): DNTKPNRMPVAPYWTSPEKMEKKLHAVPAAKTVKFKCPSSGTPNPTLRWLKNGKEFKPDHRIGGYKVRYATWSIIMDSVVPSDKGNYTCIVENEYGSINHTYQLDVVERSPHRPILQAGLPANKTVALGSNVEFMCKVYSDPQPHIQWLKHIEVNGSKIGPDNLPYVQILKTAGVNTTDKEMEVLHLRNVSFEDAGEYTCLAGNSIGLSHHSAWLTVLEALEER
T1 sequence (O35082 35-982): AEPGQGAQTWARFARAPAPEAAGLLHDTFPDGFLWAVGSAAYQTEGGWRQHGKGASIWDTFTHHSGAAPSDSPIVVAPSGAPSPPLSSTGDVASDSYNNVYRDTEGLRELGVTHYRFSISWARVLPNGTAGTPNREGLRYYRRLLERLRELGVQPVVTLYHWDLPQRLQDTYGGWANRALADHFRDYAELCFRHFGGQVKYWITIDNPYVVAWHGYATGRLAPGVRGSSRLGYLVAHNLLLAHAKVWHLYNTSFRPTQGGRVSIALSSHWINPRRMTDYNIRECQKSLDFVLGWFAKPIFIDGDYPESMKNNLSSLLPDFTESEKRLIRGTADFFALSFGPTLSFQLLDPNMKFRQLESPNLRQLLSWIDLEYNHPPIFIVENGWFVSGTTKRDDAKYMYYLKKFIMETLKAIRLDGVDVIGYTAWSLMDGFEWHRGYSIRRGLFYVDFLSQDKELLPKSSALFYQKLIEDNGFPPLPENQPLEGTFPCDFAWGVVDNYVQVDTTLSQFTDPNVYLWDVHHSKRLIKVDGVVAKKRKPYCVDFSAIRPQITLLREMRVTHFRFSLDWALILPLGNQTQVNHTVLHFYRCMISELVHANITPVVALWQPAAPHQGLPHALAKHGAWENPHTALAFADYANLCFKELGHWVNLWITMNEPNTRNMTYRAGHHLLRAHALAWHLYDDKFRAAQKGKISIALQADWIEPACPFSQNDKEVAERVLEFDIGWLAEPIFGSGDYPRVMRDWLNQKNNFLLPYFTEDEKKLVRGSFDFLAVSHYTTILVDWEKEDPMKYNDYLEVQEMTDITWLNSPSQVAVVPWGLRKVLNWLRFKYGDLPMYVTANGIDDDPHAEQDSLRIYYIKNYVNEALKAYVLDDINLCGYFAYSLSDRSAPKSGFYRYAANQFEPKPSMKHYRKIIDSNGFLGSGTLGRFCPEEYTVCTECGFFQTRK
Test: SPR: binary FGFR1c-Klotho complex passed over immobilized FGF23 protein/peptide
Type: binding, human FGFR1c, murine Klotho
Protocol: A variety of interaction or binding assays can be used to determine that an agent specifically binds the binary FGFR-Klotho complex, such as the SPR interaction analysis described below. One aspect of the present invention utilizes SPR analysis of FGF23 protein/peptide binding to the binary FGFR-Klotho complex. The SPR analysis involved FGF23 protein/peptide immobilization by amine coupling on flow channels of a chip. Proteins were injected over the chip at a flow rate of 50 μl min^−1, and at the end of each protein injection (180 s), HBS-EP buffer (10 mM HEPES-NaOH, pH 7.4, 150 mM NaCl, 3 mM EDTA, 0.005% (v/v) polysorbate 20; 50 μl min^−1) was flowed over the chip to monitor dissociation for 180 s. The chip surface was then regenerated by injecting 50 μl of 2.0 M NaCl in 10 mM sodium acetate, pH 4.5. […] For each protein injection over a FGF23 protein/peptide chip, the nonspecific responses from the FHF1B control flow channel were subtracted from the responses recorded for the flow channel onto which FGF23 protein/peptide was immobilized. […] As a control, competition of FGF23 C-terminal tail peptide in solution with immobilized FGF23 C-terminal tail peptide for binding to the binary FGFR1c-Klotho complex was analyzed. […]

binding to the binary FGFR1c-Klotho complex | Molecule
bound to the FGFR1c-Klotho complex | FGF23^28-251: human FGF23 (A28 to I251), bioactive full-length ligand expressed in E. coli (protein, listed as Homo sapiens) ASPLLGSSWGGLIHLYTATARNSYHLQIHKNGHVDGAPHQTIYSALMIRSEDAGFVVITGVMSRRYLCMDFRGNIFGSHYFDPENCRFQHQTLENGYDVYHSPQYHFLVSLGRAKRAFLPGMNPPPYSQFLSRRNEIPLIHFNTPIPRRHTRSAEDDSERDPLNVLKPRARMTPAPASCSQELPSAEDNSPMASDPLGVVRGGRVNTHAGGTGPEGCRPFAKFI
avidly bound | FGF23^180-251: 72-amino acid C-terminal tail of human FGF23 (S180 to I251), expressed in E. coli (protein, listed as Homo sapiens) SAEDDSERDPLNVLKPRARMTPAPASCSQELPSAEDNSPMASDPLGVVRGGRVNTHAGGTGPEGCRPFAKFI

From US8889621B2, “Inhibiting binding of FGF23 to the binary FGFR-Klotho complex for the treatment of hypophosphatemia” (New York University, priority 2009, dated 2014)
